Bridge positions count the residues as written; N and C are the ends.
B1: human glucose-regulated protein GRP78 (natural protein)
chain: not shown
notes: also called heat shock protein A5; HSPA5; source: Escherichia coli, recombinant; bought: Abcam
B2: Pep42, 13-mer cyclopeptide (peptide)
peptide: H-CTVALPGGYVRVC-NH2
modifications: disulfide 1-13
SMILES: CC(C)C[C@@H]1NC(=O)[C@H](C)NC(=O)[C@H](C(C)C)NC(=O)[C@H]([C@@H](C)O)NC(=O)[C@@H](N)CSSC[C@@H](C(N)=O)NC(=O)[C@H](C(C)C)NC(=O)[C@H](CCCNC(=N)N)NC(=O)[C@H](C(C)C)NC(=O)[C@H](Cc2ccc(O)cc2)NC(=O)CNC(=O)CNC(=O)[C@@H]2CCCN2C1=O
notes: source: synthetic peptide (Fmoc SPPS, disulphide cyclisation with DMSO, HPLC purified)

Legend:
[1] = target: T1, S1 subunit (aa 14-685) of the spike protein of SARS-CoV-2 (SARS-CoV-2, UniProt P0DTC2 14-685); assay: SPR; settings: both partners purified
T1 construct: also called soluble S1; wild-type S1 protein

[2] = target: B1; assay: SPR; settings: both partners purified

Binder | KD in the presence of 12.5 uM LCP O [1] [nM] | KD in the presence of 12.5 uM LCP W [1] [nM] | IC50 [2] [nM] | Kd [2] [nM]
B1 | 751 | 137 | – | –
B2 | – | – | 5900 | 3400
